{
  "source": "patent US20120100556A1",
  "about": "“Functional Expression of Higher Plant Nitrate Transporters in Pichia Pastoris” (priority 2007, published 2012)",
  "molecules": {"B1": {"name": "AtNrt1.1: higher plant nitrate transporter protein, GenBank accession L10357 (protein, UniProt Q05085 1-590, looked up)", "Protein NRT1/ PTR FAMILY 6.3": "MSLPETKSDDILLDAWDFQGRPADRSKTGGWASAAMILCIEAVERLTTLGIGVNLVTYLTGTMHLGNATAANTVTNFLGTSFMLCLLGGFIADTFLGRYLTIAIFAAIQATGVSILTLSTIIPGLRPPRCNPTTSSHCEQASGIQLTVLYLALYLTALGTGGVKASVSGFGSDQFDETEPKERSKMTYFFNRFFFCINVGSLLAVTVLVYVQDDVGRKWGYGICAFAIVLALSVFLAGTNRYRFKKLIGSPMTQVAAVIVAAWRNRKLELPADPSYLYDVDDIIAAEGSMKGKQKLPHTEQFRSLDKAAIRDQEAGVTSNVFNKWTLSTLTDVEEVKQIVRMLPIWATCILFWTVHAQLTTLSVAQSETLDRSIGSFEIPPASMAVFYVGGLLLTTAVYDRVAIRLCKKLFNYPHGLRPLQRIGLGLFFGSMAMAVAALVELKRLRTAHAHGPTVKTLPLGFYLLIPQYLIVGIGEALIYTGQLDFFLRECPKGMKGMSTGLLLSTLALGFFFSSVLVTIVEKFTGKAHPWIADDLNKGRLYNFYWLVAVLVALNFLIFLVFSKWYVYKEKRLAEVGIELDDEPSIPMGH"}, "B2": {"name": "AtNrt1.3: higher plant nitrate transporter protein, GenBank accession AB019232 (protein, UniProt Q9LVE0 1-590, looked up)", "Protein NRT1/ PTR FAMILY 6.4": "MVHVSSSHGAKDGSEEAYDYRGNPPDKSKTGGWLGAGLILGSELSERICVMGISMNLVTYLVGDLHISSAKSATIVTNFMGTLNLLGLLGGFLADAKLGRYKMVAISASVTALGVLLLTVATTISSMRPPICDDFRRLHHQCIEANGHQLALLYVALYTIALGGGGIKSNVSGFGSDQFDTSDPKEEKQMIFFFNRFYFSISVGSLFAVIALVYVQDNVGRGWGYGISAATMVVAAIVLLCGTKRYRFKKPKGSPFTTIWRVGFLAWKKRKESYPAHPSLLNGYDNTTVPHTEMLKCLDKAAISKNESSPSSKDFEEKDPWIVSTVTQVEEVKLVMKLVPIWATNILFWTIYSQMTTFTVEQATFMDRKLGSFTVPAGSYSAFLILTILLFTSLNERVFVPLTRRLTKKPQGITSLQRIGVGLVFSMAAMAVAAVIENARREAAVNNDKKISAFWLVPQYFLVGAGEAFAYVGQLEFFIREAPERMKSMSTGLFLSTISMGFFVSSLLVSLVDRVTDKSWLRSNLNKARLNYFYWLLVVLGALNFLIFIVFAMKHQYKADVITVVVTDDDSVEKEVTKKESSEFELKDIP"}, "B3": {"name": "HvNar2.3: barley associate protein Nar2 of two-component HATS, SEQ ID NO: 6 (protein)", "chain": "MARQGMVTALLLLVLAAGCCASAGAVAYLSKLPVTLDVTASPTPGQVLHAGEDVITVTWALNASQPAGKDADYKNVKVSLCYAPVSQKEREWRKTHDDLKKDKTCQFKITQQAYPGAGKVEYRVALDIPTATYYVRAYALDASGTQVAYGQTAPTAAFNVVSITGVTTSIKVAAGVFSAFSVASLAFFFFIEKRKKNN", "modifications": "Hordeum vulgare"}, "B4": {"name": "AtNrt1.4: higher plant nitrate transporter protein, GenBank accession AC003105 (protein, UniProt Q9SZY4 1-577, looked up)", "Protein NRT1/ PTR FAMILY 6.2": "MESKGSWTVADAVDYKGRPADKSKTGGWITAALILGIEVVERLSTMGIAVNLVTYLMETMHLPSSTSANIVTDFMGTSFLLCLLGGFLADSFLGRFKTIGIFSTIQALGTGALAVATKLPELRPPTCHHGEACIPATAFQMTILYVSLYLIALGTGGLKSSISGFGSDQFDDKDPKEKAHMAFFFNRFFFFISMGTLLAVTVLVYMQDEVGRSWAYGICTVSMAIAIVIFLCGTKRYRYKKSQGSPVVQIFQVIAAAFRKRKMELPQSIVYLYEDNPEGIRIEHTDQFHLLDKAAIVAEGDFEQTLDGVAIPNPWKLSSVTKVEEVKMMVRLLPIWATTIIFWTTYAQMITFSVEQASTMRRNIGSFKIPAGSLTVFFVAAILITLAVYDRAIMPFWKKWKGKPGFSSLQRIAIGLVLSTAGMAAAALVEQKRLSVAKSSSQKTLPISVFLLVPQFFLVGAGEAFIYTGQLDFFITQSPKGMKTMSTGLFLTTLSLGFFVSSFLVSIVKRVTSTSTDVGWLADNINHGRLDYFYWLLVILSGINFVVYIICALWFKPTKGKDSVEKENGKGFSVEDC"}},
  "key": {"[1]": {"tested_on": "P. pastoris GS115-YNR1 transformants", "experiment": "Nitrate transporter (NT) activity of barley two-component HATS transformants, nitrite assay", "assay_type": "cell-based, Pichia pastoris", "settings": "1 mM NaNO3, 2 hours at 30° C., pH 6.5; compared to negative controls GS115 wt and GS115-YNR1", "text": "To test if P. pastoris was capable to identify a plant two-component HATS system, the following constructs containing HvNrt2.1 (SEQ ID NO: 5) or HvNar2.3 (SEQ ID NO: 6) were made and transformed into GS115-YNR1 line at AOX locus individually: pPIC3.5-pGAP-HvNrt2.1 or pPIC3.5-pGAP-HvNar2.3. To obtain transformants carrying HvNar2.3 and HvNrt2.1, GS115 wt was transformed with pPIC3.5-pGAPHvNar2.3-pGAPYNR at His 4 locus, then re-transformed with pPIC3.5-pGAP-HvNrt2.1 at AOX locus after the line was confirmed carrying both YNR1 and HvNar2.3 genes by PCR. The transformants were cultured in rich media (YPD) at 30° C. for overnight. Yeast cells were collected and washed with water twice then re-suspended in […], pH 6.5 and 1% glucose containing 1 mM NaNO3. After 2 hours incubation at 30° C., the supernatant was collected for nitrite assay with 1% Sulfanilamide, 0.01% N-(1-Naphthyl)ethylene-diamine dihydrochloride and 15% (v/v) H3PO4."}, "[2]": {"tested_on": "Arabidopsis Nrt1.1 transformants", "experiment": "Functional pre-screening chlorate assay (growth on minimal plate)", "assay_type": "cell-based, Pichia pastoris", "settings": "very small concentrations of chlorate, relative to Pichia angusta Nrt transformants", "protocol": "5 μL of overnight YPD transformant cultures were spotted onto a minimal plate containing yeast nitrogen base, 10 mM proline, 2% glucose and 3-20 mM chlorate. These were incubated overnight at 30° C. The amount of growth was observed the next morning. […] This assay was repeated with various Nrt genes."}, "[3]": {"tested_on": "functional transformants", "experiment": "Chlorate assay, functional transformants with pGAP promoter", "assay_type": "cell-based, Pichia pastoris", "settings": "as low as", "protocol": "A particularly effective way to screen for functional transformants is the use of a chlorate assay. It is known that Pichia pastoris cells with co-expressed Arabidopsis nitrate reductase and a yeast nitrate transporter driven under methanol-inducible AOX promoter are sensitive to 150 mM chlorate on solid medium. See, Unkles, et al., (2004) J. Biol. Chem., 279:28182-86. However, when a constitutive promoter rather than the commonly-used pAOX is used, the sensitivity of the functional transformants to chlorate increases substantially, and therefore the chlorate assay is much more sensitive. For example, when the preferred pGAP promoter is used, functional transformants are sensitive to chlorate concentrations much below 150 mM, such as by concentrations of as low as about 0.5 mM. Of course, the sensitivity level will vary depending on the rate of uptake of the particular Nrt integrated into the Pichia pastoris."}, "[4]": {"tested_on": "Pichia angusta Nrt transformants", "experiment": "Functional pre-screening chlorate assay (growth on minimal plate)", "assay_type": "cell-based, Pichia pastoris", "settings": "0.5 mM chlorate, overnight at 30° C.", "protocol": "[…] These were incubated overnight at 30° C. The amount of growth was observed the next morning. […] This assay was repeated with various Nrt genes."}, "[5]": {"tested_on": "Pichia pastoris cells with co-expressed Arabidopsis nitrate reductase and a yeast nitrate transporter", "settings": "150 mM chlorate on solid medium; methanol-inducible AOX promoter; cited from earlier work"}, "[6]": {"tested_on": "Pichia pastoris cell expressing the indicated nitrate transporter gene", "experiment": "In vivo nitrate uptake assay (nitrite in medium by Griess reagent, Michaelis-Menten fit)", "assay_type": "cell-based", "settings": "transporter co-expressed with YNR1 in Pichia pastoris; 20 mM MOPS pH 6.5, 1% glucose; nitrate 0-30 mM", "text": "Pichia pastoris is a non-nitrate assimilating yeast. Because of this, any nitrate taken in via the Nrt is converted to nitrite by the co-expressed Nr and diffused or transported to the medium. This property permits the transformed Pichia pastoris to be used as an in vivo nitrate uptake assay, as the amount of nitrate taken into the cells is directly proportional to the nitrite later present in the growth medium. Nitrite may be quantitatively detected using Griess reagent or any other method known in the art. By way of the assay, various kinetic parameters of an Nrt may be quantified, such as Km and Vmax.\nThe assay is generally performed by incubating transformed Pichia pastoris on a medium containing nitrate for a set amount of time and assessing the amount of nitrite diffused to the medium after that set amount of time. The medium is preferably buffered. Most preferably, the medium has about 20 mM MOPS, pH 6.5, buffer and about 1% glucose, as this buffered medium allows the detection of linear uptake for up to several hours. The table below provides kinetic data for several Nrt proteins ascertained using the in vivo uptake assay herein described:\nPichia pastoris transformants were prepared in accordance with example 1 above and grown in YPD medium at 30° C. for 1 day. Cell pellets were washed twice with water then resuspended with a proper amount of uptake medium including nitrate. 24 different nitrate concentrations were tested, ranging from 0-30 mM. Optimal results were obtained with a buffered medium such as 20 mM MOPS, pH 6.5, 1% glucose, and the varying concentrations of nitrate. The aliquots were transferred into a 96-well plate; supernatants were mixed with Greiss reagent and monitored at 545 nm using a plate reader produced by Molecular Devices.\nThe raw data were fitted into proper kinetic equations, such as the Michaelis-Menton equation, using a program such as KaleidaGraph, available from Synergy Software, Reading Pa., USA. This in vivo uptake assay permits the kinetics of various nitrate transporters to be ascertained, such as those listed in Table 1 above."}},
  "data": [
    {"molecule": "HvNrt2.1: barley carrier-type protein Nrt2 of two-component HATS, SEQ ID NO: 5", "values": [
      {"measurement": "NT activity", "setting": "[1]", "value": "did not have NT activity"}
    ]},
    {"molecule": "[O-][Cl+2]([O-])O", "note": "[chlorate]", "values": [
      {"measurement": "sensitivity of transformants to chlorate", "setting": "[2]", "value": "less sensitive"},
      {"measurement": "chlorate concentration to which functional transformants are sensitive", "setting": "[3]", "value": "about 0.5 mM"},
      {"measurement": "growth of transformants in chlorate", "setting": "[4]", "value": "inhibited"},
      {"measurement": "sensitivity to chlorate", "setting": "[5]", "value": "sensitive"}
    ]},
    {"molecule": "B1", "values": [
      {"measurement": "Km", "setting": "[6]", "value": 360, "unit": "µM"},
      {"measurement": "Vmax, μM of nitrate taken up in one minute by 50 μl Pichia pastoris cell", "setting": "[6]", "value": 8.0, "unit": "μM/m/50 μl cell"}
    ]},
    {"molecule": "B2", "values": [
      {"measurement": "Km", "setting": "[6]", "value": 7400, "unit": "µM"},
      {"measurement": "Vmax, μM of nitrate taken up in one minute by 50 μl Pichia pastoris cell", "setting": "[6]", "value": 14.4, "unit": "μM/m/50 μl cell"}
    ]},
    {"molecule": "B3", "values": [
      {"measurement": "NT activity", "setting": "[1]", "value": "did not have NT activity"}
    ]},
    {"molecule": "B4", "values": [
      {"measurement": "Km", "setting": "[6]", "value": 610, "unit": "µM"},
      {"measurement": "Vmax, μM of nitrate taken up in one minute by 50 μl Pichia pastoris cell", "setting": "[6]", "value": 4.0, "unit": "μM/m/50 μl cell"}
    ]}
  ]
}
